B1: human prolyl 3-hydroxylase 1 (P3H1) (enzyme, UniProt Q32P28-1 23-736, looked up)
chain: EVESEAGWGMVTPDLLFAEGTAAYARGDWPGVVLSMERALRSRAALRALRLRCRTQCAADFPWELDPDWSPSPAQASGAAALRDLSFFGGLLRRAACLRRCLGPPAAHSLSEEMELEFRKRSPYNYLQVAYFKINKLEKAVAAAHTFFVGNPEHMEMQQNLDYYQTMSGVKEADFKDLETQPHMQEFRLGVRLYSEEQPQEAVPHLEAALQEYFVAYEECRALCEGPYDYDGYNYLEYNADLFQAITDHYIQVLNCKQNCVTELASHPSREKPFEDFLPSHYNYLQFAYYNIGNYTQAVECAKTYLLFFPNDEVMNQNLAYYAAMLGEEHTRSIGPRESAKEYRQRSLLEKELLFFAYDVFGIPFVDPDSWTPEEVIPKRLQEKQKSERETAVRISQEIGNLMKEIETLVEEKTKESLDVSRLTREGGPLLYEGISLTMNSKLLNGSQRVVMDGVISDHECQELQRLTNVAATSGDGYRGQTSPHTPNEKFYGVTVFKALKLGQEGKVPLQSAHLYYNVTEKVRRIMESYFRLDTPLYFSYSHLVCRTAIEEVQAERKDDSHPVHVDNCILNAETLVCVKEPPAYTFRDYSAILYLNGDFDGGNFYFTELDAKTVTAEVQPQCGRAVGFSSGTENPHGVKAVTRGQRCAIALWFTLDPRHSERDRVQADDLVKMLFSPEEMDLSQEQPLDAQQGPPEPAQESLSGSESKPKDEL
B3: human cartilage-associated protein (CRTAP), strep-tagged (natural protein, UniProt O75718 27-401, looked up)
chain: QYERYSFRSFPRDELMPLESAYRHALDKYSGEHWAESVGYLEISLRLHRLLRDSEAFCHRNCSAAPQPEPAAGLASYPELRLFGGLLRRAHCLKRCKQGLPAFRQSQPSREVLADFQRREPYKFLQFAYFKANNLPKAIAAAHTFLLKHPDDEMMKRNMAYYKSLPGAEDYIKDLETKSYESLFIRAVRAYNGENWRTSITDMELALPDFFKAFYECLAACEGSREIKDFKDFYLSIADHYVEVLECKIQCEENLTPVIGGYPVEKFVATMYHYLQFAYYKLNDLKNAAPCAVSYLLFDQNDKVMQQNLVYYQYHRDTWGLSDEHFQPRPEAVQFFNVTTLQKELYDFAKENIMDDDEGEVVEYVDDLLELEETS

Columns and labels:
[1] = molecular target: B3; test: cryo-EM structure
[2] = molecular target: the molecule itself; test: SEC
[3] = molecular target: B1; test: cryo-EM structure

B1
stoichiometry N [1]: 1

B2: PCP complex with mutation W675L of P3H1 (complex)
chain 1: EVESEAGWGMVTPDLLFAEGTAAYARGDWPGVVLSMERALRSRAALRALRLRCRTQCAADFPWELDPDWSPSPAQASGAAALRDLSFFGGLLRRAACLRRCLGPPAAHSLSEEMELEFRKRSPYNYLQVAYFKINKLEKAVAAAHTFFVGNPEHMEMQQNLDYYQTMSGVKEADFKDLETQPHMQEFRLGVRLYSEEQPQEAVPHLEAALQEYFVAYEECRALCEGPYDYDGYNYLEYNADLFQAITDHYIQVLNCKQNCVTELASHPSREKPFEDFLPSHYNYLQFAYYNIGNYTQAVECAKTYLLFFPNDEVMNQNLAYYAAMLGEEHTRSIGPRESAKEYRQRSLLEKELLFFAYDVFGIPFVDPDSWTPEEVIPKRLQEKQKSERETAVRISQEIGNLMKEIETLVEEKTKESLDVSRLTREGGPLLYEGISLTMNSKLLNGSQRVVMDGVISDHECQELQRLTNVAATSGDGYRGQTSPHTPNEKFYGVTVFKALKLGQEGKVPLQSAHLYYNVTEKVRRIMESYFRLDTPLYFSYSHLVCRTAIEEVQAERKDDSHPVHVDNCILNAETLVCVKEPPAYTFRDYSAILYLNGDFDGGNFYFTELDAKTVTAEVQPQCGRAVGFSSGTENPHGVKAVTRGQRCAIALLFTLDPRHSERDRVQADDLVKMLFSPEEMDLSQEQPLDAQQGPPEPAQESLSGSESKPKDEL
chain 2: QYERYSFRSFPRDELMPLESAYRHALDKYSGEHWAESVGYLEISLRLHRLLRDSEAFCHRNCSAAPQPEPAAGLASYPELRLFGGLLRRAHCLKRCKQGLPAFRQSQPSREVLADFQRREPYKFLQFAYFKANNLPKAIAAAHTFLLKHPDDEMMKRNMAYYKSLPGAEDYIKDLETKSYESLFIRAVRAYNGENWRTSITDMELALPDFFKAFYECLAACEGSREIKDFKDFYLSIADHYVEVLECKIQCEENLTPVIGGYPVEKFVATMYHYLQFAYYKLNDLKNAAPCAVSYLLFDQNDKVMQQNLVYYQYHRDTWGLSDEHFQPRPEAVQFFNVTTLQKELYDFAKENIMDDDEGEVVEYVDDLLELEETS
chain 3: not shown
binding result [2]: binds

B3
binding result [3]: binds

B4: human peptidyl-prolyl cis-trans isomerase B (PPIB), flag-tagged (enzyme)
chain: not shown
stoichiometry N [3]: 1 | stoichiometry N [1]: 1

From article PMC11381544 (Nature Communications, 2024)
